One assay concerns the target T1, recombinant rat NL1 (Rattus norvegicus, UniProt Q62765).
T1 construct: the extracellular domain of NL1 was immobilized on a sensor chip; purchased R&D systems (Abingdon, UK)
The assay can be described thus: Surface plasmon resonance binding to immobilized NL1. The note with it: SPR, Biacore 2000, 25 °C, HBS-P pH 7.4 + 3 mM CaCl2; analyte injected over NL1 immobilized on CM4 chip, 20 μl/min; 1:1 Langmuir model; four independent experiments. As for the experimental part: Binding analysis was performed on a Biacore 2000 SPR biosensor (GE Healthcare) at 25 °C using HBS-P (10 mM HEPES, pH 7.4, 150 mM NaCl, 0.005% [v/v] Surfactant P20) supplemented with 3 mM CaCl2 as a running buffer. Approximately 2000 Resonance Units (RU) of NL1 was immobilized on a CM4 sensor chip at a flow rate of 5 μl/min by amine coupling. Binding to serially diluted recombinant NX1β, used as a positive control, was performed as previously described. Aβ1-42 was dissolved in anhydrous DMSO to a stock concentration of 3.21 mM followed by serial dilution in running buffer. Peptide was injected into the chip, and binding experiments were performed at a flow rate of 20 μl/min, followed by regeneration of sensor chip with 10 μl of 15 mM NaOH and 150 mM NaCl. After subtraction of blank control, the binding curves were analyzed based on a nonlinear curve fitting using a 1:1 Langmuir binding model and the software package BIAevaluation 4 (GE Healthcare). The apparent equilibrium constant (KD) was calculated as kd/ka, in which ka and kd are the apparent association and dissociation constants, respectively.
A general note: In SPR one partner is held on a chip, and binding of the other changes the refractive index at the surface.

Assay [1] has as its target Biotinylated amyloid-β peptide 1-40 (Aβ1-40). The assay can be described thus: ELISA; competitive ELISA: NL1 (3.125 nM) coated on the plate; biotinylated Aβ1-40 (400 nM; Aβ40-1 as negative control) premixed 30 min with serially diluted NL1 or NL1-derived peptides; 4 h at room temperature; streptavidin-HRP; IC50 interpreted as KD. On the technique in general: An ELISA detects its analyte on a solid surface through an enzyme-linked reagent.

For 2 substances, Kd results are on record in publication PMC11790763, “A Peptide Motif Covering Splice Site B in Neuroligin-1 Binds to Aβ and Acts as a Neprilysin Inhibitor” (Molecular Neurobiology, 2024).

T1 sequence (Q62765 46-697 limits assumed): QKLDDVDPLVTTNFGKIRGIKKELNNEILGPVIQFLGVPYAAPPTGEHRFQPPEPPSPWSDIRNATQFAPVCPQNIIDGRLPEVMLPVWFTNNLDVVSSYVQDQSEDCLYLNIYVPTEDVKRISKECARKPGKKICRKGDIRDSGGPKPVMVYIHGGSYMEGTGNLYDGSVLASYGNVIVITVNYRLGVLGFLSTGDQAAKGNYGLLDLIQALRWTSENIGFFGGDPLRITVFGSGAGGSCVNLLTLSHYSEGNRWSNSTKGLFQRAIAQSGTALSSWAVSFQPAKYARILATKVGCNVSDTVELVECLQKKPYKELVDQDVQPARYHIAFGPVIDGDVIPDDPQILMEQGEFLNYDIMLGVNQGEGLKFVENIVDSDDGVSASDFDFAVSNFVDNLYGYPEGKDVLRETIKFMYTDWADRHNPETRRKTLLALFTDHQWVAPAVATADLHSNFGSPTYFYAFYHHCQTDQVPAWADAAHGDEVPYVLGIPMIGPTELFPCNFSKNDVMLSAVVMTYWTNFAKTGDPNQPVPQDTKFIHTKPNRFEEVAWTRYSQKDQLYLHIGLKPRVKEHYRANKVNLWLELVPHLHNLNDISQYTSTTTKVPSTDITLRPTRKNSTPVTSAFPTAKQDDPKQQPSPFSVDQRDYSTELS

By Kd is commonly meant the concentration at which binding is half-saturated. “NX1β: recombinant neurexin-1β, positive control for binding to NL1”: the Kd with recombinant rat NL1 was found to be 6.64 nM. Consider “Recombinant rat neuroligin-1 (NL1), soluble extracellular domain (from UniProt Q62765 46-697) (domain or fragment)”, for which the Kd in assay [1] was 19.9 nM.
